Data from patent US20150191530A1 (POMONA RICERCA S R L, published 2015).

What was measured:
[1] = molecular target: T1, recombinant JCV VP1 protein (Mad1 strain, Abcam ab74569) (JC virus, Mad1 strain, UniProt P03089 1-354); assay: method not stated
T1 construct: also called recombinant VP1 from Mad1 strain; VP1/JCV

[2] = molecular target: T2, bovine serum albumin (bovine, UniProt P02769 25-607); assay: ELISA with crude Fab preparations
T2 construct: also called BSA

[3] = molecular target: T3, recombinant BKV VP1 protein (Abcam ab74567) (BK virus, UniProt P03088 1-362); assay: ELISA on recombinant JCV VP1 and recombinant BKV VP1
T3 sequence: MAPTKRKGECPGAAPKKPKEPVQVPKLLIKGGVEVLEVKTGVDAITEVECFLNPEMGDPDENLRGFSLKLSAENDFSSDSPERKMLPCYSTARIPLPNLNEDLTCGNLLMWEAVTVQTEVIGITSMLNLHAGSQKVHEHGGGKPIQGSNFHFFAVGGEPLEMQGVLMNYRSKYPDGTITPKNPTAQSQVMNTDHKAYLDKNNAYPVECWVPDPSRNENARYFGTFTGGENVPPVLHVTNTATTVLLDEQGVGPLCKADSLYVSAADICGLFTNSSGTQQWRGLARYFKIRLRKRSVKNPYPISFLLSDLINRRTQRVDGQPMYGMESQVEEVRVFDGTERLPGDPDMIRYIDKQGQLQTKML

T1 sequence (P03089 whole entry): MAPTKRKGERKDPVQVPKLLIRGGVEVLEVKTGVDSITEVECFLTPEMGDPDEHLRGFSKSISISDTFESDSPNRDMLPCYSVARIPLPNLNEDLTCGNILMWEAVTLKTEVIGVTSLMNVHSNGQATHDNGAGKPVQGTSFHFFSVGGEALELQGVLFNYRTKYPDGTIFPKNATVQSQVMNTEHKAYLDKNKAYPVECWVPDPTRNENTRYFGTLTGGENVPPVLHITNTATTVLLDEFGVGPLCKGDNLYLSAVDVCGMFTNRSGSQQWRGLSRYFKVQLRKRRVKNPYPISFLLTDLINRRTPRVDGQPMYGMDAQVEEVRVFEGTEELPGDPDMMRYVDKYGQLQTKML
T2 sequence (P02769 25-607 limits assumed): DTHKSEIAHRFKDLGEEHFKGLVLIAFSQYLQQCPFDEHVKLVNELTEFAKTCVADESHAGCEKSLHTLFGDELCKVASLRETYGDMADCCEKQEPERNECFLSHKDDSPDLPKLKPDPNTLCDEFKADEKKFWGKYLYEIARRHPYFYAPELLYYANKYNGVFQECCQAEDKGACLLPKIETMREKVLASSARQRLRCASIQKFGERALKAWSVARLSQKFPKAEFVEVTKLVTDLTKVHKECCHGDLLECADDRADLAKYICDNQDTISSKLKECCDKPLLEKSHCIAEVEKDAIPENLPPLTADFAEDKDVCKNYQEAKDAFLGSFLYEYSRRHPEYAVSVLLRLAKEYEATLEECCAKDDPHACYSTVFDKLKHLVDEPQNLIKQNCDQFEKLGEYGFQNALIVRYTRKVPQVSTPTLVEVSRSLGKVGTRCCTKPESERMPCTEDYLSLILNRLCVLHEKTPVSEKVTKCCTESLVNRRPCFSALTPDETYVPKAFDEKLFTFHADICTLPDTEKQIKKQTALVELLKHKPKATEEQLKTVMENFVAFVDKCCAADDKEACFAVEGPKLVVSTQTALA

B1: GRE1 human anti-JCV VP1 monoclonal antibody (Fab, V domains shown)
VH: WGPGLVKPSQSLSLTCAVSGASVSSGINYWSWIRLYPGKGLEWIGYVYSSGTTYYNPSLKSRVSISLDTSKNQFSLNLRSVTAADTAVYYCARDRGDSSGSSYYKYYMDVWGKGTTVTVSS
VL: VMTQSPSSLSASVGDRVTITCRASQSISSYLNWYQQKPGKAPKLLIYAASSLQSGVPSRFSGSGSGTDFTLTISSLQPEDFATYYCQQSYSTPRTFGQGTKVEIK
notes: also called IgG GRE; JCV-GRE1
Kd [1]: ~1 nM
binding result [2]: no binding
binding result [3]: no binding
